How the values were obtained:
insulin receptor (IR) [1] = experiment: competition ELISA, plate-bound Insulin-R, 20 nM insulin-biotin, competitor 1000 nM, replicate 1
insulin receptor (IR) [2] = experiment: competition ELISA, plate-bound Insulin-R, 20 nM insulin-biotin, competitor 62.5 nM, average
insulin receptor (IR) [3] = experiment: competition ELISA, plate-bound Insulin-R, 20 nM insulin-biotin, competitor 7.8125 nM, replicate 2
insulin receptor (IR) [4] = experiment: competition ELISA, plate-bound Insulin-R, 20 nM insulin-biotin, competitor 500 nM, replicate 1
insulin receptor (IR) [5] = experiment: competition ELISA, plate-bound Insulin-R, 20 nM insulin-biotin, competitor 2000 nM, replicate 1
insulin receptor (IR) [6] = experiment: competition ELISA, plate-bound Insulin-R, 20 nM insulin-biotin, competitor 250 nM, replicate 2
insulin receptor (IR) [7] = experiment: competition ELISA, plate-bound Insulin-R, 20 nM insulin-biotin, competitor 3.90625 nM, replicate 2
insulin receptor (IR) [8] = experiment: competition ELISA, plate-bound Insulin-R, 20 nM insulin-biotin, competitor 2000 nM, average
insulin receptor (IR) [9] = experiment: competition ELISA, plate-bound Insulin-R, 20 nM insulin-biotin, competitor 7.8125 nM, average
insulin receptor (IR) [10] = experiment: competition ELISA, plate-bound Insulin-R, 20 nM insulin-biotin, competitor 3.90625 nM, replicate 1
insulin receptor (IR) [11] = experiment: competition ELISA, plate-bound Insulin-R, 20 nM insulin-biotin, competitor 250 nM, replicate 1
insulin receptor (IR) [12] = experiment: competition ELISA, plate-bound Insulin-R, 20 nM insulin-biotin, competitor 15.625 nM, replicate 2
insulin receptor (IR) [13] = experiment: competition ELISA, plate-bound Insulin-R, 20 nM insulin-biotin, competitor 1000 nM, average
insulin receptor (IR) [14] = experiment: competition ELISA, plate-bound Insulin-R, 20 nM insulin-biotin, competitor 62.5 nM, replicate 1
insulin receptor (IR) [15] = experiment: competition ELISA, plate-bound Insulin-R, 20 nM insulin-biotin, competitor 1000 nM, replicate 2
insulin receptor (IR) [16] = experiment: competition ELISA, plate-bound Insulin-R, 20 nM insulin-biotin, competitor 1.95313 nM, replicate 2
insulin receptor (IR) [17] = experiment: competition ELISA, plate-bound Insulin-R, 20 nM insulin-biotin, competitor 2000 nM, replicate 2
insulin receptor (IR) [18] = experiment: competition ELISA, plate-bound Insulin-R, 20 nM insulin-biotin, competitor 3.90625 nM, average
insulin receptor (IR) [19] = experiment: competition ELISA, plate-bound Insulin-R, 20 nM insulin-biotin, competitor […], replicate 2
insulin receptor (IR) [20] = experiment: competition ELISA, plate-bound Insulin-R, 20 nM insulin-biotin, competitor 1.95313 nM, replicate 1
insulin receptor (IR) [21] = experiment: competition ELISA, plate-bound Insulin-R, 20 nM insulin-biotin, competitor 62.5 nM, replicate 2
insulin receptor (IR) [22] = experiment: competition ELISA, plate-bound Insulin-R, 20 nM insulin-biotin, competitor 7.8125 nM, replicate 1
insulin receptor (IR) [23] = experiment: competition ELISA, plate-bound Insulin-R, 20 nM insulin-biotin, competitor […], replicate 1
insulin receptor (IR) [24] = experiment: competition ELISA, plate-bound Insulin-R, 20 nM insulin-biotin, competitor 1.95313 nM, average
insulin receptor (IR) [25] = experiment: competition ELISA, plate-bound Insulin-R, 20 nM insulin-biotin, competitor 15.625 nM, average
insulin receptor (IR) [26] = experiment: competition ELISA, plate-bound Insulin-R, 20 nM insulin-biotin, competitor 500 nM, replicate 2
insulin receptor (IR) [27] = experiment: competition ELISA, plate-bound Insulin-R, 20 nM insulin-biotin, competitor […], average
insulin receptor (IR) [28] = experiment: competition ELISA, plate-bound Insulin-R, 20 nM insulin-biotin, competitor 31.25 nM, replicate 1
insulin receptor (IR) [29] = experiment: competition ELISA, plate-bound Insulin-R, 20 nM insulin-biotin, competitor 31.25 nM, average
insulin receptor (IR) [30] = experiment: competition ELISA, plate-bound Insulin-R, 20 nM insulin-biotin, competitor 250 nM, average
insulin receptor (IR) [31] = experiment: competition ELISA, plate-bound Insulin-R, 20 nM insulin-biotin, competitor 31.25 nM, replicate 2
insulin receptor (IR) [32] = experiment: competition ELISA, plate-bound Insulin-R, 20 nM insulin-biotin, competitor 500 nM, average
insulin receptor (IR) [33] = experiment: competition ELISA, plate-bound Insulin-R, 20 nM insulin-biotin, competitor 15.625 nM, replicate 1
insulin receptor (IR) [34] = experiment: plate-bound Insulin-R, 20 nM insulin-biotin, 0 nM competitor (ZC701B20 series), replicate 1
insulin receptor (IR) [35] = experiment: plate-bound Insulin-R, 20 nM insulin-biotin, 0 nM competitor (Insulin series), average
insulin receptor (IR) [36] = experiment: plate-bound Insulin-R, 20 nM insulin-biotin, 0 nM competitor (ZC1487B26 series), average
insulin receptor (IR) [37] = experiment: plate-bound Insulin-R, 20 nM insulin-biotin, 0 nM competitor (ZC1487B26 series), replicate 1
insulin receptor (IR) [38] = experiment: plate-bound Insulin-R, 20 nM insulin-biotin, 0 nM competitor (IFG-II series), replicate 1
insulin receptor (IR) [39] = experiment: plate-bound Insulin-R, 20 nM insulin-biotin, 0 nM competitor (IFG-II series), replicate 2
insulin receptor (IR) [40] = experiment: plate-bound Insulin-R, 20 nM insulin-biotin, 0 nM competitor (IFG-II series), average
insulin receptor (IR) [41] = experiment: plate-bound Insulin-R, 20 nM insulin-biotin, 0 nM competitor (ZC701B20 series), average
insulin receptor (IR) [42] = experiment: plate-bound Insulin-R, 20 nM insulin-biotin, 0 nM competitor (ZC701B20 series), replicate 2
insulin receptor (IR) [43] = experiment: plate-bound Insulin-R, 20 nM insulin-biotin, 0 nM competitor (ZC1487B26 series), replicate 2
insulin receptor (IR) [44] = experiment: plate-bound Insulin-R, 20 nM insulin-biotin, 0 nM competitor (Insulin series), replicate 2
insulin receptor (IR) [45] = experiment: plate-bound Insulin-R, 20 nM insulin-biotin, 0 nM competitor (Insulin series), replicate 1
[46] = target: ConA (ConA-sepharose beads); experiment: pull-down on ConA-sepharose beads, GUS activity in flow through

Sequence of periodate/borohydride modified ß-glucuronidase (enzyme) (P08236 23-651): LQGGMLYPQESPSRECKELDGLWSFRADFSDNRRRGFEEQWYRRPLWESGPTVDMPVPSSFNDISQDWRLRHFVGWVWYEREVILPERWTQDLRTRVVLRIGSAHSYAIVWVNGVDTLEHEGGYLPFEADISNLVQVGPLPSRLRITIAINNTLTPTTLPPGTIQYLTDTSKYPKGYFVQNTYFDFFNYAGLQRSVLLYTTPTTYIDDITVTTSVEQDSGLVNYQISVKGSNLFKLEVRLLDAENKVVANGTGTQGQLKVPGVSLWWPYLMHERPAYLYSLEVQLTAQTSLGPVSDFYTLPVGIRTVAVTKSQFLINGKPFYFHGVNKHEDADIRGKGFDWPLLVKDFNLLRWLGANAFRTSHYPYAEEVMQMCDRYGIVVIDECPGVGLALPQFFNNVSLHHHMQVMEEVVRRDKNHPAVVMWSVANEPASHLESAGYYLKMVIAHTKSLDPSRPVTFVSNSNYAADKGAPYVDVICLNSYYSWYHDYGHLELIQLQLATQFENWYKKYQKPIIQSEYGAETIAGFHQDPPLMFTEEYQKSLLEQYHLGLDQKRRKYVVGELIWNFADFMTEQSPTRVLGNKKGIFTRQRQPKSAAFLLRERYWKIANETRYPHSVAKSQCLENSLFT

| Substance | Chemiluminescence Intensity (insulin receptor (IR) [1]) | Chemiluminescence Intensity (insulin receptor (IR) [2]) | Chemiluminescence Intensity (insulin receptor (IR) [3]) | Chemiluminescence Intensity (insulin receptor (IR) [4]) | Chemiluminescence Intensity (insulin receptor (IR) [5]) | Chemiluminescence Intensity (insulin receptor (IR) [6]) | Chemiluminescence Intensity (insulin receptor (IR) [7]) | Chemiluminescence Intensity (insulin receptor (IR) [8]) | Chemiluminescence Intensity (insulin receptor (IR) [9]) | Chemiluminescence Intensity (insulin receptor (IR) [10]) | Chemiluminescence Intensity (insulin receptor (IR) [11]) | Chemiluminescence Intensity (insulin receptor (IR) [12]) | Chemiluminescence Intensity (insulin receptor (IR) [13]) | Chemiluminescence Intensity (insulin receptor (IR) [14]) | Chemiluminescence Intensity (insulin receptor (IR) [15]) | Chemiluminescence Intensity (insulin receptor (IR) [16]) | Chemiluminescence Intensity (insulin receptor (IR) [17]) | Chemiluminescence Intensity (insulin receptor (IR) [18]) | Chemiluminescence Intensity (insulin receptor (IR) [19]) | Chemiluminescence Intensity (insulin receptor (IR) [20]) | further results |
| --- | --- | --- | --- | --- | --- | --- | --- | --- | --- | --- | --- | --- | --- | --- | --- | --- | --- | --- | --- | --- | --- |
| IGF-II (wild-type, non-biotinylated control ligand) (from UniProt P01344 25-91) | 268 | 1110 | 1480 | 356 | 70 | 566 | 1370 | 105 | 1480 | 1480 | 644 | 1380 | 222 | 991 | 176 | 1250 | 140 | 1420 | 919 | 1410 | Chemiluminescence Intensity (insulin receptor (IR) [21]): 1220; Chemiluminescence Intensity (insulin receptor (IR) [22]): 1480; Chemiluminescence Intensity (insulin receptor (IR) [23]): 828; Chemiluminescence Intensity (insulin receptor (IR) [24]): 1330; Chemiluminescence Intensity (insulin receptor (IR) [25]): 1430; Chemiluminescence Intensity (insulin receptor (IR) [26]): 379; Chemiluminescence Intensity (insulin receptor (IR) [27]): 874; Chemiluminescence Intensity (insulin receptor (IR) [28]): 1190; Chemiluminescence Intensity (insulin receptor (IR) [29]): 1320; Chemiluminescence Intensity (insulin receptor (IR) [30]): 605; Chemiluminescence Intensity (insulin receptor (IR) [31]): 1450; Chemiluminescence Intensity (insulin receptor (IR) [32]): 368; Chemiluminescence Intensity (insulin receptor (IR) [33]): 1490 |
| Insulin (non-biotinylated control) (from UniProt P01308 25-54; P01308 90-110) (ligand) | 43 | 498 | 1000 | 66 | 38 | 141 | 1340 | 25.5 | 753 | 1180 | 102 | 885 | 34 | 479 | 25 | 1460 | 13 | 1260 | 229 | 1050 | Chemiluminescence Intensity (insulin receptor (IR) [21]): 517; Chemiluminescence Intensity (insulin receptor (IR) [22]): 503; Chemiluminescence Intensity (insulin receptor (IR) [23]): 243; Chemiluminescence Intensity (insulin receptor (IR) [24]): 1250; Chemiluminescence Intensity (insulin receptor (IR) [25]): 832; Chemiluminescence Intensity (insulin receptor (IR) [26]): 57; Chemiluminescence Intensity (insulin receptor (IR) [27]): 236; Chemiluminescence Intensity (insulin receptor (IR) [28]): 750; Chemiluminescence Intensity (insulin receptor (IR) [29]): 634; Chemiluminescence Intensity (insulin receptor (IR) [30]): 122; Chemiluminescence Intensity (insulin receptor (IR) [31]): 517; Chemiluminescence Intensity (insulin receptor (IR) [32]): 61.5; Chemiluminescence Intensity (insulin receptor (IR) [33]): 780 |
| Insulin-biotin (biotinylated insulin) (from UniProt P01308 25-54; P01308 90-110) (ligand) |  |  |  |  |  |  |  |  |  |  |  |  |  |  |  |  |  |  |  |  | Chemiluminescence Intensity (insulin receptor (IR) [34]): 1790; Chemiluminescence Intensity (insulin receptor (IR) [35]): 1940; Chemiluminescence Intensity (insulin receptor (IR) [36]): 2010; Chemiluminescence Intensity (insulin receptor (IR) [37]): 1950; Chemiluminescence Intensity (insulin receptor (IR) [38]): 1870; Chemiluminescence Intensity (insulin receptor (IR) [39]): 1960; Chemiluminescence Intensity (insulin receptor (IR) [40]): 1920; Chemiluminescence Intensity (insulin receptor (IR) [41]): 1840; Chemiluminescence Intensity (insulin receptor (IR) [42]): 1890; Chemiluminescence Intensity (insulin receptor (IR) [43]): 2070; Chemiluminescence Intensity (insulin receptor (IR) [44]): 1690; Chemiluminescence Intensity (insulin receptor (IR) [45]): 2180 |
| periodate/borohydride modified ß-glucuronidase (enzyme) |  |  |  |  |  |  |  |  |  |  |  |  |  |  |  |  |  |  |  |  | ConA binding activity lost [46]: 60% |
